Experimental data reported in patent US9902783B2, “Antibodies and pharmaceutical compositions containing same useful for inhibiting activity of metalloproteins” (Yeda Research and Development Co. Ltd., priority 2007, dated 2018).

T1: MMP-7 (matrilysin) (Homo sapiens, UniProt P09237)
T1 sequence (P09237 95-267): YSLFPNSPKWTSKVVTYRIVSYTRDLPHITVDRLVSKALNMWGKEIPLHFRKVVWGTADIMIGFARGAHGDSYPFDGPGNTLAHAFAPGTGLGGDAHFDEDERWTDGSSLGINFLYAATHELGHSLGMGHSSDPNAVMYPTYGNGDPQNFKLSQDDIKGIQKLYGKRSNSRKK

T2: full length native MMP-2 secreted by HT1080 cells (Homo sapiens, UniProt P08253)
T2 construct: full length native MMP-2 secreted by human fibrosarcoma (HT1080) cell cultures; endogenous in cells; host or cells: HT1080 human fibrosarcoma cells, conditioned medium
T2 sequence (P08253 30-660): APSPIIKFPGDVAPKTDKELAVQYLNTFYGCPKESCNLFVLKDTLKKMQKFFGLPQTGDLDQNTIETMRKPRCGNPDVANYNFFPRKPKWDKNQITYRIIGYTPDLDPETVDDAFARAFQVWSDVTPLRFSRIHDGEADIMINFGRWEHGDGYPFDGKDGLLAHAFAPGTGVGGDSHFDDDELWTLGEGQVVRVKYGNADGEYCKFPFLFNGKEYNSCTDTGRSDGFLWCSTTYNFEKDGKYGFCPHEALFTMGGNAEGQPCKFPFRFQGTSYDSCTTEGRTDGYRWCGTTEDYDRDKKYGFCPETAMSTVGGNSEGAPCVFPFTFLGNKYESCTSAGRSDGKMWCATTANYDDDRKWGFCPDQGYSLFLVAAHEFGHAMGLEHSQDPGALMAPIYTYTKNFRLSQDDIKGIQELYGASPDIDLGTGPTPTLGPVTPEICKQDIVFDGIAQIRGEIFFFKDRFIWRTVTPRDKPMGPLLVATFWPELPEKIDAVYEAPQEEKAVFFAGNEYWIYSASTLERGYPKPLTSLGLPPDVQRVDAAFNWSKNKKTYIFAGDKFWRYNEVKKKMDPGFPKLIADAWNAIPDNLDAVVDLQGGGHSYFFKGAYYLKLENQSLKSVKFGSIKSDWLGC


What was measured:
[1] = molecular target: T1, MMP-7 (matrilysin); assay: inhibition assay with fluorogenic peptide substrate, MMP-7; format: biochemical; details: mAb concentrations of up to 30 μM
Protocol: To explore the selectivity of 6C6, its reactivity was tested toward different matrix metalloproteinase subgroups including matrilysin (MMP7), membrane type MMP (MT1-MMP) and related disintegrin (ADAMs) tumor necrosis factor-α-converting enzyme (TACE). The core structures of these enzymes, are highly similar, varying mostly within the peripheral loops. Specifically the zinc-histidine scaffold is well conserved, showing a consensus helix followed by a loop that serves as a scaffold for the three histidine residues that coordinate the catalytic zinc ion (FIG. 13).
Similar inhibition assays were performed with appropriate flourogenic peptide substrates. […] Sequence variations, mostly within the peripheral loops dictate differences in the extent of exposure of the zinc-histidine motif, in the shape of the active site and its surface electrostatic may account for this selective inhibitory pattern.

[2] = system: DSS-induced colitis; assay: DSS induced acute colitis in mice; format: in vivo, C57BL/6 mice; details: for reduction in colon length: 11 days after DSS induction, versus naïve mice
Protocol: FIGS. 15A-15C are graphs illustrating the effect of 6C6 treatment on the various manifestations of acute DSS colitis in C57BL/6 mice. Disease was induced by 2% DSS for 5 days. 6C6 treatment, 5 or 1.5 mg/kg mouse, was administered by daily i.p. injection starting from day 0. FIG. 15A: Clinical score was evaluated by daily monitoring of DAI (which is the combined score of body weight, rectal bleeding and stool consistency, on a scale of 0-4). Data are expressed as the dot distribution of a mean for each animal of days 6 to 10. FIG. 15B: Colon length. FIG. 15C: Mortality. The data presented are the combined results of two experiments, with a total of 15 mice per group.*, significant effect over colitis-untreated mice (p<0.05).
To explore the inhibitory activity of 6C6, the ability of mAb treatment to ameliorate DSS induced acute colitis was examined Specifically, 2% DSS was provided to the highly susceptible mouse strain C57BL/6 for five days. 6C6 treatment was given daily by intraperitoneal injections of 1.5 or 5 […], starting at the day of induction. Mice exposed to 2% DSS developed symptoms of acute colitis, with diarrhea, rectal bleeding and severe weight loss.

[3] = molecular target: T3, catalytic zinc ion of MMP9 (Homo sapiens, UniProt P14780); assay: X-ray absorption spectroscopy of MMP9-6C6 complex; details: zinc K edge XAS, MMP-9 catalytic domain-mAb complex
T3 construct: lacking the hinge region and the hemopexin domain, Ala1-Gly424 |P14780|MMP9_HUMAN; made in house
From the text: FIG. 16 is a graph of results from X-ray absorption spectroscopy at the zinc K edge of active MMP9 (black) and inhibited MMP9-6C6 complex (red). The results are presented in the form of radial distribution from the zinc ion. The edge position the MMP-9 catalytic domain-mAb complex (red) shifts to a higher energy relative to active MMP-9 (inset) indicating binding to the catalytic zinc ion. […] Remarkably, this mode of binding is analogous to the binding of TIMPs at the active site of MMPs.
In order to further study the differences between active MMP9 and an inhibited MMP9-6C6 complex, X ray absorption spectroscopy was performed. […] The data is presented in the form of Fourier transform (FT) spectra to provide the radial distribution of the various atoms within the first and second coordination shells of the catalytic zinc ion in MMP9. Apparent change in the radial distribution spectra of the free and inhibited enzyme can be observed above the noise level. These spectral changes indicate that the local environment of the catalytic zinc ion undergoes structural changes upon binding to 6C6. The observed deviation in both spatial distribution and peak intensities of the FT spectral features between the active and the inhibited enzyme indicate unequivocally that the local structure of the catalytic zinc changes upon mAb complex formation.

[4] = molecular target: T2, full length native MMP-2 secreted by HT1080 cells; assay: immunoprecipitation of HT1080 conditioned medium and western blot; format: binding; details: HT1080 conditioned medium, not activated
Protocol: HT1080 cells were seeded in petri dishes. After reaching 80% confluence, the medium (DMEM supplemented with 10% FCS, nonessential amino acids, penicillin, streptomycin, sodium pyruvate, and L-glutamine) was changed to serum free medium (without FCS). Following another 24 h of incubation, conditioned medium (CM) was harvested from the adherent cells and concentrated using Millipore Centricon-10 (Bedford, Mass.). Concentrated supernatants were used for immunoprecipitations. CM was incubated with anti-1 (CoTCPP) mAb (15 μg/ml) overnight at 4° C. […] Beads were washed 3 times with PBS, suspended in SDS sample buffer, and heated to 95° C. for 3 min Immunoprecipitates were recovered by centrifugation and subjected to SDS/PAGE. After separation, proteins were transferred to nitrocellulose (NC) membranes and probed with anti-MMP-2 antibody.
To activate ProMMP-2 produced by HT1080 cells, 1 mM of 4-aminophenyl mercuric acetate (APMA) was added to the concentrated CM followed by 6 h incubation in 37° C. After activation, the CM was dialyzed (×3) against PBS at 4° C., to remove APMA Immunoprecipitation with the activated medium was performed as described above.

T3 sequence (P14780 94-444): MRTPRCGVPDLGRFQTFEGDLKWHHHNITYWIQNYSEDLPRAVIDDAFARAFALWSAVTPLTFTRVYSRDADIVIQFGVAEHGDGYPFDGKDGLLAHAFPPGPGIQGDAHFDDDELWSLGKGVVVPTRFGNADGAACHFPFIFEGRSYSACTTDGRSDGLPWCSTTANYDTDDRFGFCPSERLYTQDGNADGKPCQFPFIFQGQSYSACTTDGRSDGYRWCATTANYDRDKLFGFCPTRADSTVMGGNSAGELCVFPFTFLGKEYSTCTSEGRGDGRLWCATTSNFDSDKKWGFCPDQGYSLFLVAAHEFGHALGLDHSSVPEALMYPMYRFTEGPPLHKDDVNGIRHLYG

Molecule | inhibition of MMP-7 [1] | reduction in colon length ([2]; 1.5 mg/kg mouse daily i.p.) [%] | reduction in colon length ([2]; 5 mg/kg mouse daily i.p.) [%] | disease activity index (DAI) ([2]; 2% DSS 5 days, daily i.p. mAb from day 0, versus untreated control) | mortality rate ([2]; 11 days after induction, 6C6 treated mice) [%] | binding mode at the catalytic zinc ion [3] | binding to Pro-MMP-2 [4]
6C6: monoclonal antibody, IgG2a, raised against the hapten Imisdp; MMP-2 and MMP-9 inhibitory; SEQ ID NO: 1 (protein, 6c6 mAb light chain) CMETTQTPLSLPVSLGDQASISCRSSQSIVHSNGNTFLEWYLQKPGQSPKLLIYKVSNCRFSGVPDRFSGSGSGTDFTLKISRVEAEDLGVYYCFQASHVPPTFGGG | neither MMP-7 nor TACE were inhibited to any measurable extent | 22 | 16 | decreased disease activity | 33 | directly binds the zinc ion | 
13E11: monoclonal antibody, IgG2b, raised against the hapten CoTCPP (antibody, V domains shown, 13E11 mAb heavy chain; 13E11 mAb light chain, monoclonal antibody, IgG2b, raised against the hapten CoTCPP) VH: EGGGLVQPGGSRKLSCAASGFTFTSFGMHWVRQAPEKGLEWVAYISSGNEIIYYADTVKGRFTISRDNPKNTLFLQMTSLRSEDTAMYYCARNYYRYGFYVMDYWGQG VL: EIVVTQSPAILSASPGEKVTMTCRASSSVSYMHWYQQKPGSSPKPWIYATSNELASGVPARFSGSGSGTSYSLTISRVEAEDAATYYCQQWISNPLTFGAG |  |  |  |  |  |  | but not Pro-MMP-2
